In paper PMC5964162:

Biological target: Human complement C1q (human) (UniProt P02745)
Test: ELISA

Sequence of UniProt P02745 (P02745 23-245, chain 1 of 3): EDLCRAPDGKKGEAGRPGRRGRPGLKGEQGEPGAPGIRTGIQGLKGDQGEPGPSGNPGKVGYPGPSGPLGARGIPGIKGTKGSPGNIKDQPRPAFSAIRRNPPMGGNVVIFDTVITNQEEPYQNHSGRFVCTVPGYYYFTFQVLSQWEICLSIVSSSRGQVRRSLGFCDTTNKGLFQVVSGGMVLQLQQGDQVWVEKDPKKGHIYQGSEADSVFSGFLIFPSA
Sequence of UniProt P02745 (P02746 28-253, chain 2 of 3, further chain): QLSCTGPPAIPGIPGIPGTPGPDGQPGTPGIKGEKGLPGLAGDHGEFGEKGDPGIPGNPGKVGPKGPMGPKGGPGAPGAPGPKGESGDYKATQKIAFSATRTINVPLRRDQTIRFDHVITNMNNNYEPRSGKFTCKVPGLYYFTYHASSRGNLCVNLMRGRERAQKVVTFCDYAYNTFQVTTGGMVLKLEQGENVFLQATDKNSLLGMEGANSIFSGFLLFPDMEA
Sequence of UniProt P02745 (P02747 29-245, chain 3 of 3, further chain): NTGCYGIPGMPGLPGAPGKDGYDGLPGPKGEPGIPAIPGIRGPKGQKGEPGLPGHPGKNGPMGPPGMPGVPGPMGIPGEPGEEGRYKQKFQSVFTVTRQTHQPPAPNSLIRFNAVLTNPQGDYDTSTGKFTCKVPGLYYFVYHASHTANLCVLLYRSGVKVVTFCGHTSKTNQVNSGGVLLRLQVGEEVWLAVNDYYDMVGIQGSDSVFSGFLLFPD

## Recombinant SntA protein of Streptococcus suis (from UniProt Q8VUN9 1-813) (natural protein)
  percent of C1q–IgG binding left with 50 µM SntA: 3.34%
